Reference: publication doi:10.1101/2025.05.11.653314, “Ureaplasma parvum SMC-ScpAB complex is capable of loop extrusion and demonstrates properties that distinguish it from Bacillus subtilis homologue” (bioRxiv, 2025)

B1: B. subtilis Smc (enzyme, Bacillus subtilis, UniProt P51834 1-1186, looked up)
chain: MFLKRLDVIGFKSFAERISVDFVKGVTAVVGPNGSGKSNITDAIRWVLGEQSARSLRGGKMEDIIFAGSDSRKRLNLAEVTLTLDNDDHFLPIDFHEVSVTRRVYRSGESEFLINNQPCRLKDIIDLFMDSGLGKEAFSIISQGKVEEILSSKAEDRRSIFEEAAGVLKYKTRKKKAENKLFETQDNLNRVEDILHELEGQVEPLKIQASIAKDYLEKKKELEHVEIALTAYDIEELHGKWSTLKEKVQMAKEEELAESSAISAKEAKIEDTRDKIQALDESVDELQQVLLVTSEELEKLEGRKEVLKERKKNAVQNQEQLEEAIVQFQQKETVLKEELSKQEAVFETLQAEVKQLRAQVKEKQQALSLHNENVEEKIEQLKSDYFELLNSQASIRNELQLLDDQMSQSAVTLQRLADNNEKHLQERHDISARKAACETEFARIEQEIHSQVGAYRDMQTKYEQKKRQYEKNESALYQAYQYVQQARSKKDMLETMQGDFSGFYQGVKEVLKAKERLGGIRGAVLELISTEQKYETAIEIALGASAQHVVTDDEQSARKAIQYLKQNSFGRATFLPLSVIRDRQLQSRDAETAARHSSFLGVASELVTFDPAYRSVIQNLLGTVLITEDLKGANELAKLLGHRYRIVTLEGDVVNPGGSMTGGAVKKKNNSLLGRSRELEDVTKRLAEMEEKTALLEQEVKTLKHSIQDMEKKLADLRETGEGLRLKQQDVKGQLYELQVAEKNINTHLELYDQEKSALSESDEERKVRKRKLEEELSAVSEKMKQLEEDIDRLTKQKQTQSSTKESLSNELTELKIAAAKKEQACKGEEDNLARLKKELTETELALKEAKEDLSFLTSEMSSSTSGEEKLEEAAKHKLNDKTKTIELIALRRDQRIKLQHGLDTYERELKEMKRLYKQKTTLLKDEEVKLGRMEVELDNLLQYLREEYSLSFEGAKEKYQLETDPEEARKRVKLIKLAIEELGTVNLGSIDEFERVNERYKFLSEQKEDLTEAKNTLFQVIEEMDEEMTKRFNDTFVQIRSHFDQVFRSLFGGGRAELRLTDPNDLLHSGVEIIAQPPGKKLQNLNLLSGGERALTAIALLFSILKVRPVPFCVLDEVEAALDEANVFRFAQYLKKYSSDTQFIVITHRKGTMEEADVLYGVTMQESGVSKVISVKLEETKEFVQ
notes: Smc (ATPase of the Smc-ScpAB complex), Bacillus subtilis; gene cloned into pET21a; expected mass printed as 135.5 kDa; source: E. coli Rosetta (DE3), purified (HiTrap Q flow-through, Ni-NTA)
B2: B. subtilis ScpA (natural protein, Bacillus subtilis, UniProt P35154 1-251, looked up)
chain: MEEYQVKIDTFEGPLDLLLHLINRLEIDIYDIPVAKITEQYLLYVHTMRVLELDIASEYLVMAATLLSIKSRMLLPKQEEELFEDELLEEEDPREELIEKLIEYRKYKDAAKDLKEREEERQKSFTKPPSDLSEYAKEVKQSEQKLSVTVYDMIGAFQKVLKRKKINRPMETTITRQDIPIEARMNEIVHSLKSRGTRINFMDLFPYEQKEHLVVTFLAVLELMKNQLVLIEQEHNFSDIYITGSESIHGA
notes: ScpA (kleisin of the Smc-ScpAB complex), Bacillus subtilis; gene cloned into pET21a; expected mass printed as 31 kDa; source: E. coli Rosetta (DE3), purified (Ni-NTA, MonoQ)

Assays:
Assay in all cases: cross-linking; purified proteins in various combinations incubated with or without 0.4% formaldehyde in Hepes 50 mM pH 7.5, NaCl 100 mM, DTT 0.1 mM, 20% glycerol; denatured at 65°C with SDS and BME; SDS-PAGE; bands identified by mass spectrometry (peptide fingerprinting)
[1] = target: the molecule itself
B. subtilis Smc = target: B1; settings: both partners purified
B. subtilis ScpA = target: B2; settings: both partners purified

Binder | stoichiometry N [1] | binding result (B. subtilis Smc) | binding result (B. subtilis ScpA)
B1 | 2 | – | –
B2 | – | binds | –
B. subtilis ScpB (natural protein, Bacillus subtilis, UniProt P35155 1-197, looked up, ScpB (KITE protein of the Smc-ScpAB complex), Bacillus subtilis; gene cloned into pET21a; expected mass printed as 23.2 kDa; source: E. coli Rosetta (DE3), purified (Ni-NTA, MonoQ)) MGLDIVNWKAIVEALLYAAGDEGLTKKQLLTVLEIEEPELNTIMADVADEYRGDTRGIELIEYADTYMLSTKKDFAPYLKKLIEVPSKGLSQASLEVLAIVSYKQPITRAEIEEIRGVKSERILHSLVAKALLCEVGRADGPGRAILYGTTPTFLEQFGLKTLDELPPLPENAEEDVLQEEADLFFENFNQTFEDIK | 2 | – | binds
